Measurements published in US20190330625A1, “CONSEQUENCES OF A DEFECTIVE SWITCH IN CUTANEOUS SQUAMOUS CELL CARCINOMA” (AGENCY FOR SCIENCE, TECHNOLOGY AND RESEARCH, published 2019).
Blank lines part the entries; values can stand above or below the binder they belong to.

What was measured:
HuR (ELAVL1) = HuR (ELAVL1) (UniProt Q15717 Q15717:1-326); experiment: EMSA; 0.2-0.6 uM HuR; 30 mM Tris pH 7.4, 5 mM MgCl2, 50 mM KCl, yeast tRNA, room temperature; sequence listed as DNA, assayed as RNA transcript; conditions: pre-miRNA hairpin
Protocol: After 30 minutes at room temperature, reaction products were resolved through 6% native polyacrylamide gel electrophoresis. […] The resulting gel was dried and the protein RNA complex and unbound RNA were visualized by phosphor-imaging.

Wnt7a = target: T1, Wnt7a (UniProt O00755 32-349, limits assumed); experiment: co-IP with anti-FSTL1 antibody or IgG control from A253 lysate, western blot for Wnt7a
T1 construct: Endogenous protein of the A253 (HNSCC) cell lysate
T1 sequence (looked up): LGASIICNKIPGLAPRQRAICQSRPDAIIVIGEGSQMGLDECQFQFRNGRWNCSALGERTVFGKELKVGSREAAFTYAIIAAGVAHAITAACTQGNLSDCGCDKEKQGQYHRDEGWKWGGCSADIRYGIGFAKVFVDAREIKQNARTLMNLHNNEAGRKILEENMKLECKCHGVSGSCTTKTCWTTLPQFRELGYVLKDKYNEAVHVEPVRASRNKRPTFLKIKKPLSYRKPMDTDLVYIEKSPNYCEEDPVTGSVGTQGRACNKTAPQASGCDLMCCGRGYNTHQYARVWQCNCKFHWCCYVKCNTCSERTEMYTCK

HuR (ELAVL1), sequence (Q15717 whole entry, one chain of several): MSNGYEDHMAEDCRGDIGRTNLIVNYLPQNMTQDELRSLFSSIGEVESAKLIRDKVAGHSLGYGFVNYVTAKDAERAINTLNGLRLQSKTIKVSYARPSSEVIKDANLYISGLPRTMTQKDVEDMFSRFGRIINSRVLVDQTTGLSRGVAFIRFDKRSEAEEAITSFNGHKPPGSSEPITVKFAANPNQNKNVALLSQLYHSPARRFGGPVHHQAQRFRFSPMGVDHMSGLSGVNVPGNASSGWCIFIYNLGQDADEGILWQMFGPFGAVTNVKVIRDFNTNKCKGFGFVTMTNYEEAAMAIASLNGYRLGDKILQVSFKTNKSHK

B1: pre-miR-198 WT (ssRNA)
RNA: UCAUUGGUCCAGAGGGGAGAUAGGUUCCUGUGAUUUUUCCUUCUUCUCUAUAGAAUAAAUGA
binding result (HuR (ELAVL1)): binds

binding result (Wnt7a): binds
B2: Follistatin-related protein 1 (FSTL1) (other)
chain: EEELRSKSKICANVFCGAGRECAVTEKGEPTCLCIEQCKPHKRPVCGSNGKTYLNHCELHRDACLTGSKIQVDYDGHCKEKKSVSPSASPVVCYQSNRDELRRRIIQWLEAEIIPDGWFSKGSNYSEILDKYFKNFDNGDSRLDSSEFLKFVEQNETAINITTYPDQENNKLLRGLCVDALIELSDENADWKLSFQEFLKCLNPSFNPPEKKCALEDETYADGAETEVDCNRCVCACGNWVCTAMTCDGKNQKGAQTQTEEEMTRYVQELQKHQETAEKTKRVSTKEI
notes: Endogenous secreted glycoprotein in A253 cell lysates, pulled down with the anti-FSTL1 antibody; also called follistatin-like-1
